Experimental data as given in the supplement of paper PMC12042874.
± gives the uncertainty stated by the source.

Test: amyloid nucleation score (Sup35N fusion, yeast selection) (log enrichment); library NNK3; higher = more nucleation; inactive = no reads after selection
In short: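 Yeast lacking psi expressed peptides of 20 random codons fused to Sup35N, received 100 μM copper sulfate for 24 hours, and were then grown for 7 days at 30°C on medium lacking adenine and uracil. Illumina sequencing of input and output plasmid inserts provided the reads. Nucleation scores are DiMSum log enrichments of output over input, centred on the mode of non-aggregating sequences. Any sequence with under 100 input reads was excluded.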

Row | Substance | amyloid nucleation score
1 | MNTVGLIDLHSGAPLSINRT | inactive
2 | FKSAFWLIM | inactive
3 | LQLLRIGHWMLPCCWRILLV | inactive
4 | FLTLSSFHRPMVE | inactive
5 | MSFEYSPQGSILYGPSRNIY | inactive
6 | YCSLLSDERGSSVTGILAVF | inactive
7 | KALVGKYFKMCRTCDRYFYC | -0.416 ± 0.98
8 | TTMWFLWEVSGYCHKCN | inactive
9 | RRAMIGIFSITVRFADNGWK | inactive
10 | FLYAFLPWRCVKNFFCSKVL | inactive
11 | VIVRRSQFTELICLFYNFTM | inactive
12 | SVERCVIRFCYLQGLYMAAF | inactive
13 | AVLVDSWRWERFYFMTTIKT | inactive
14 | DSFAGVRLGVHASNILIHGQ | inactive
15 | LIASLRIWPRESMPR | inactive
16 | VIITNEMVDRVDGDTTSYMH | -0.003 ± 1
17 | CVPGYGYRLNYSL | inactive
18 | LRGTMGEV | inactive
19 | ITISIYRIGRRFFDEYFNSF | inactive
20 | SKCGLLNSSGTYWNIG | 0.934 ± 0.15
21 | HCFIDNKMLPYVMCYPDKKR | inactive
22 | NHGLLTKGMISAFRII | inactive

Row | Substance | amyloid nucleation score
23 | TVYELYVDLAVRRSAFAFLP | 0.744 ± 0.15
24 | RLSLKSFVRFQRLCP | inactive
25 | VFLQRCVDYMCDRNCFSVFA | inactive
26 | TLGRNCLVQRSCMGRSSECD | inactive
27 | QIFLCTGFCR | 2.69 ± 0.062
28 | VNHKFKSSFFNNH | -0.27 ± 1.1
29 | FVRPFGRVFIFQKDFSIKVC | inactive
30 | QHKKKIAF | inactive
31 | IVILPM | inactive
32 | PFGSSTRFIHVFYGAWGHSK | inactive
33 | LDLSLMHGMFTYFGVHMMMP | inactive
34 | MLYFALNLC | inactive
35 | SRFFGGRYSVLS | inactive
36 | GRQYVCYYTFLKLYWLKSMW | inactive
37 | TLWFQPDFTHVRRWYGLGLR | inactive
38 | VRAVLIAYGLK | inactive
39 | PRLLRVSAIKSGRCPKGKKS | inactive
40 | LHSIFDSVHSCMRFWMIWSE | inactive
41 | IILLSGDSSSRIQEVKVGKK | inactive
42 | RNRWPLPRYICRFKGFSHVV | inactive
43 | CALSHYGKFDYYPSFVSFKQ | inactive
44 | LHPSRLDGT | 0.411 ± 0.25

Row | Substance | amyloid nucleation score
45 | VLDAIVATDRL | inactive
46 | SVWFGEIRNMGLIEEENRDW | inactive
47 | QFPSFANIIANCPLGFLWYA | inactive
48 | SDDRIT | inactive
49 | IWCQRYYAIGRRVPKASYDG | -0.179 ± 0.78
50 | GARLAVW | inactive
51 | WFDSAPSPLDLRVHLFNVKV | inactive
52 | SKSARVLSFYYPYFFISINL | inactive
53 | AGHSEA | inactive
54 | ADNKLANWSGAVREWEVRRV | -0.523 ± 0.95
55 | SSVKGTYIFIYDVVMLR | inactive
56 | FLDVALLKSMNCSASREVGV | inactive
57 | GVYSVTCMFYKWEVGWSSSD | inactive
58 | SIIIIISCFGVQNVWFAEMM | 0.405 ± 0.3
59 | TGCSSF | inactive
60 | KLYIQCIYPDLVVINCDSWN | 2.39 ± 0.073
61 | SVWMGVEPGHYLYQRVLGLV | inactive
62 | PRLKFASYVMEMPLKFGEGI | inactive
63 | YSMSILFRYHLNGVRYGMTG | inactive
64 | PMYPGIVGSRAIMQRLVGCC | inactive
